Km data for one protein are collected here from ChEMBL document CHEMBL1144764, “A molecular modeling study of the interaction of 2'-fluoro-substituted analogues of dUMP/FdUMP with thymidylate synthase” (Bioorg Med Chem Lett, 2008).

Substrate in data set [1]: O=c1ccn([C@@H]2O[C@H](COP(=O)(O)O)[C@@H](O)[C@H]2F)c(=O)[nH]1
Conditions: Homo sapiens.
Description: (§1) Activity at human recombinant thymidylate synthase

Substrate in data set [2]: O=c1ccn([C@H]2C[C@H](O)[C@@H](COP(=O)(O)O)O2)c(=O)[nH]1
Conditions: Homo sapiens.
Description: as §1

B1: Thymidylate synthase (Homo sapiens), P04818 (protein)
chain: MPVAGSELPRRPLPPAAQERDAEPRPPHGELQYLGQIQHILRCGVRKDDRTGTGTLSVFGMQARYSLRDEFPLLTTKRVFWKGVLEELLWFIKGSTNAKELSSKGVKIWDANGSRDFLDSLGFSTREEGDLGPVYGFQWRHFGAEYRDMESDYSGQGVDQLQRVIDTIKTNPDDRRIIMCAWNPRDLPLMALPPCHALCQFYVVNSELSCQLYQRSGDMGLGVPFNIASYALLTYMIAHITGLKPGDFIHTLGDAHIYLNHIEPLKIQLQREPRPFPKLRILRKVEKIDDFKAEDFQIEGYNPHPTIKMEMAV
As usually defined, the Km is the substrate concentration at which the rate is half of its maximum. B1: the Michaelis constant (Km) in data set [1] was 12.2 µM; in data set [2], 5.25 µM.
